The term Tm denotes the temperature at the midpoint of the melting transition.

The conditions of this data set: Escherichia coli (strain K12), pH 7, CD, Potassium phosphate 10 mM, reversible: yes.

As for “Phosphocarrier protein HPr wild type, P0AA04”, for the setting “25 °C, Urea”, the denaturant m value is 1.06 kcal/mol/M and the “denaturant midpoint (higher = more stable)” value turned out to be 4.34 M. Where the note is “Thermal”, the Tm stood at 63.4 °C and the “unfolding enthalpy (van 't Hoff)” value worked out at 75.8 kcal/mol.
